The target of experiment [1] is T1, Feline FcRn (complex of FcRn-α subunit and β-microglobulin, C-terminal His tag) (feline, UniProt A0ABI7ZNY9 23-296; Q5MGS7 21-118).
T1 construct: treated here as one molecule
The experiment can be described thus: SPR Biacore, FcRn amine-coupled on CM5, pH 6. As for the experimental part: (§1) Feline FcRn was isolated, prepared and mutant Fc IgGs were assayed against feline FcRn according to Strietzelg et. al. Standard RACE PCR was used to amplify feline FcRn-α subunit and β-microglobulin. FcRn-α subunit and β-microglobulin were co-transfected into HEK 293 cells and the FcRn complex was purified by IMAC affinity purification via the c-terminal His tag. KD's were measured by Biacore 3000 or Biacore T200 (GE Healthcare, Pittsburgh, PA, USA) using a CM5 sensor chip.
(§2) FcRn was immobilized on the surface of the sensor using the standard amine immobilization method to reach the desired surface density. HBS-EP was used as the immobilization running buffer and 10 mM MES; 150 mM NaCl; 0.005% Tween20; 0.5 mg/mL BSA; pH6 and pH7.2 and PBS; 0.005% Tween20; 0.5 mg/mL BSA; pH7.4 were used for method running buffers and titrations. Fc mutant IgGs were flowed over receptor surfaces and affinity was determined using Scrubber2 software analysis (BioLogic Software Pty, Ltd., Campbell, Australia) or T200 evaluation software (Table 2). Blank runs containing buffer only were subtracted out from all runs. Flow cells were regenerated using 50 mM Tris pH8. Runs were performed at 15° C.

Experiment [2] addresses T1, Feline FcRn (complex of FcRn-α subunit …). The experiment is described as follows: SPR Biacore, FcRn amine-coupled on CM5, pH 7.2. As for the experimental part:
as §1, §2
(In general: Surface plasmon resonance follows binding to a sensor surface in real time, without labels.)

For experiment [3] the target is unchanged. The experiment is described as follows: SPR Biacore, biotin-FcRn on SA chip, pH 7.4. The method, then: Feline FcRn was isolated, prepared and mutant Fc IgGs were assayed against feline FcRn according to Strietzel et. al., discussed above. Standard PCR was used to amplify feline FcRn-α subunit and β-microglobulin. FcRn-α subunit and β-microglobulin were co-transfected into HEK 293 cells and the FcRn complex was purified by IMAC affinity purification via the c-terminal His tag. FcRn complex was biotin labeled through BirA enzymatic biotinylatoin reaction. KD's were measured by Biacore T200 (GE Healthcare, Pittsburgh, PA, USA) or Biacore 8K (Cytiva, Marlborough, MA, USA) using a SA sensor chip.
FcRn was captured on the surface of the sensor using a modified SA capture method. 10 mM MES; 150 mM NaCl; 0.005% Tween20; 0.5 mg/mL BSA; pH6 was used as capture, method running buffer and titrations. 1×HBS-P, 0.5 mg/mL BSA; pH7.4 was also used for method running buffer and titrations. Fc mutant IgGs were flowed over receptor surfaces and affinity was determined using T200 evaluation software or Biacore Insight Evaluation software. Blank runs containing buffer only were subtracted out from all runs. Flow cells were regenerated using 50 mM Tris pH8 or pH9. Runs were performed at 15° C.

What is called Kd is the equilibrium constant for the complex coming apart.

B1: Anti-NGF antibody of Table 3, S434Q (antibody)
heavy: DVQLVESGGDLVKPGGSLRLTCVASGFTYSNYWMHWVRQAPGKGLQWVARIDPYGGGTKHNEKFKRRFTISRDNAKNTLYLQMNSLKTEDTATYYCVRSGYDYYFDVWGQGTLVTVSSASTTAPSVFPLAPSCGTTSGATVALACLVLGYFPEPVTVSWNSGALTSGVHTFPAVLQASGLYSLSSMVTVPSSRWLSDTFTCNVAHPPSNTKVDKTVRKTDHPPGPKPCDCPKCPPPEMLGGPSIFIFPPKPKDTLSISRTPEVTCLVVDLGPDDSDVQITWFVDNTQVYTAKTSPREEQFNSTYRVVSVLPILHQDWLKGKEFKCKVNSKSLPSPIERTISKAKGQPHEPQVYVLPPAQEELSRNKVSVTCLIKSFHPPDIAVEWEITGQPEPENNYRTTPPQLDSDGTYFVYSKLSVDRSHWQRGNTYTCSVSHEALHQHHTQKSLTQSPGK
light: EIQMTQSPSSLSASPGDRVTITCRASENIYSFLAWYQQKPGKVPKLLIYNANTLAEGVPSRFSGSGSGTDFTLTISSLEPEDAATYYCQHHFGTPFTFGSGTKLEIKRSDAQPSVFLFQPSLDELHTGSASIVCILNDFYPKEVNVKWKVDGVVQNKGIQESTTEQNSKDSTYSLSSTLTMSSTEYQSHEKFSCEVTHKSLASTLVKSFQRSECQRE
As for B1, the Kd in experiment [1] came to 4.8 nM; in experiment [2] it was 0.0801 nM.

B2: mAb4 (felinized anti-IL31 antibody ZTS-5864) S428P, feline IgG1a (antibody)
heavy: DVQLVESGGDLVKPGGSLRLTCVASGFTFSDYAMSWVRQAPGKGLQWVAGIDSVGSGTSYADSVKGRFTISRDNAKNTLYLQMNSLKTEDTATYYCASGFPGSFEHWGQGTLVTVSSASTTAPSVFPLAPSCGTTSGATVALACLVLGYFPEPVTVSWNSGALTSGVHTFPAVLQASGLYSLSSMVTVPSSRWLSDTFTCNVAHPPSNTKVDKTVRKTDHPPGPKPCDCPKCPPPEMLGGPSIFIFPPKPKDTLSISRTPEVTCLVVDLGPDDSDVQITWFVDNTQVYTAKTSPREEQFNSTYRVVSVLPILHQDWLKGKEFKCKVNSKSLPSPIERTISKAKGQPHEPQVYVLPPAQEELSRNKVSVTCLIKSFHPPDIAVEWEITGQPEPENNYRTTPPQLDSDGTYFVYSKLSVDRSHWQRGNTYTCSVPHEALHSHHTQKSLTQSPGK
VL: QSVLTQPSSVSGTLGQRITISCTGSSSNIGSGYVGWYQQVPGMGPKTVIYYNSDRPSGVPDRFSGSKSGSSGTLTITGLQAEDEADYYCSVYDRTFNAVFGGGT
notes: also called mAb4 ID No. 14
B2: the binding result in experiment [3] is “no binding”.

B3: mAb4 (felinized anti-IL31 antibody ZTS-5864) S428R, feline IgG1a (antibody)
heavy: DVQLVESGGDLVKPGGSLRLTCVASGFTFSDYAMSWVRQAPGKGLQWVAGIDSVGSGTSYADSVKGRFTISRDNAKNTLYLQMNSLKTEDTATYYCASGFPGSFEHWGQGTLVTVSSASTTAPSVFPLAPSCGTTSGATVALACLVLGYFPEPVTVSWNSGALTSGVHTFPAVLQASGLYSLSSMVTVPSSRWLSDTFTCNVAHPPSNTKVDKTVRKTDHPPGPKPCDCPKCPPPEMLGGPSIFIFPPKPKDTLSISRTPEVTCLVVDLGPDDSDVQITWFVDNTQVYTAKTSPREEQFNSTYRVVSVLPILHQDWLKGKEFKCKVNSKSLPSPIERTISKAKGQPHEPQVYVLPPAQEELSRNKVSVTCLIKSFHPPDIAVEWEITGQPEPENNYRTTPPQLDSDGTYFVYSKLSVDRSHWQRGNTYTCSVRHEALHSHHTQKSLTQSPGK
VL: QSVLTQPSSVSGTLGQRITISCTGSSSNIGSGYVGWYQQVPGMGPKTVIYYNSDRPSGVPDRFSGSKSGSSGTLTITGLQAEDEADYYCSVYDRTFNAVFGGGT
notes: also called mAb4 ID No. 16
For the molecule B3, the binding result in experiment [3] is “no binding”.

B4: mAb4 (felinized anti-IL31 antibody ZTS-5864) S428T, feline IgG1a (antibody)
heavy: DVQLVESGGDLVKPGGSLRLTCVASGFTFSDYAMSWVRQAPGKGLQWVAGIDSVGSGTSYADSVKGRFTISRDNAKNTLYLQMNSLKTEDTATYYCASGFPGSFEHWGQGTLVTVSSASTTAPSVFPLAPSCGTTSGATVALACLVLGYFPEPVTVSWNSGALTSGVHTFPAVLQASGLYSLSSMVTVPSSRWLSDTFTCNVAHPPSNTKVDKTVRKTDHPPGPKPCDCPKCPPPEMLGGPSIFIFPPKPKDTLSISRTPEVTCLVVDLGPDDSDVQITWFVDNTQVYTAKTSPREEQFNSTYRVVSVLPILHQDWLKGKEFKCKVNSKSLPSPIERTISKAKGQPHEPQVYVLPPAQEELSRNKVSVTCLIKSFHPPDIAVEWEITGQPEPENNYRTTPPQLDSDGTYFVYSKLSVDRSHWQRGNTYTCSVTHEALHSHHTQKSLTQSPGK
VL: QSVLTQPSSVSGTLGQRITISCTGSSSNIGSGYVGWYQQVPGMGPKTVIYYNSDRPSGVPDRFSGSKSGSSGTLTITGLQAEDEADYYCSVYDRTFNAVFGGGT
notes: also called mAb4 ID No. 17
Take B4: the binding result in experiment [3] is “no binding”.

B5: mAb4 (felinized anti-IL31 antibody ZTS-5864) S428Q, feline IgG1a (antibody)
heavy: DVQLVESGGDLVKPGGSLRLTCVASGFTFSDYAMSWVRQAPGKGLQWVAGIDSVGSGTSYADSVKGRFTISRDNAKNTLYLQMNSLKTEDTATYYCASGFPGSFEHWGQGTLVTVSSASTTAPSVFPLAPSCGTTSGATVALACLVLGYFPEPVTVSWNSGALTSGVHTFPAVLQASGLYSLSSMVTVPSSRWLSDTFTCNVAHPPSNTKVDKTVRKTDHPPGPKPCDCPKCPPPEMLGGPSIFIFPPKPKDTLSISRTPEVTCLVVDLGPDDSDVQITWFVDNTQVYTAKTSPREEQFNSTYRVVSVLPILHQDWLKGKEFKCKVNSKSLPSPIERTISKAKGQPHEPQVYVLPPAQEELSRNKVSVTCLIKSFHPPDIAVEWEITGQPEPENNYRTTPPQLDSDGTYFVYSKLSVDRSHWQRGNTYTCSVQHEALHSHHTQKSLTQSPGK
VL: QSVLTQPSSVSGTLGQRITISCTGSSSNIGSGYVGWYQQVPGMGPKTVIYYNSDRPSGVPDRFSGSKSGSSGTLTITGLQAEDEADYYCSVYDRTFNAVFGGGT
notes: also called mAb4 ID No. 15
Consider B5, for which the binding result in experiment [3] was “no binding”.

B6: mAb4 (felinized anti-IL31 antibody ZTS-5864) S428W, feline IgG1a (antibody)
heavy: DVQLVESGGDLVKPGGSLRLTCVASGFTFSDYAMSWVRQAPGKGLQWVAGIDSVGSGTSYADSVKGRFTISRDNAKNTLYLQMNSLKTEDTATYYCASGFPGSFEHWGQGTLVTVSSASTTAPSVFPLAPSCGTTSGATVALACLVLGYFPEPVTVSWNSGALTSGVHTFPAVLQASGLYSLSSMVTVPSSRWLSDTFTCNVAHPPSNTKVDKTVRKTDHPPGPKPCDCPKCPPPEMLGGPSIFIFPPKPKDTLSISRTPEVTCLVVDLGPDDSDVQITWFVDNTQVYTAKTSPREEQFNSTYRVVSVLPILHQDWLKGKEFKCKVNSKSLPSPIERTISKAKGQPHEPQVYVLPPAQEELSRNKVSVTCLIKSFHPPDIAVEWEITGQPEPENNYRTTPPQLDSDGTYFVYSKLSVDRSHWQRGNTYTCSVWHEALHSHHTQKSLTQSPGK
VL: QSVLTQPSSVSGTLGQRITISCTGSSSNIGSGYVGWYQQVPGMGPKTVIYYNSDRPSGVPDRFSGSKSGSSGTLTITGLQAEDEADYYCSVYDRTFNAVFGGGT
notes: also called mAb4 ID No. 19
Regarding B6, the binding result in experiment [3] is reported as “no binding”.

These data come from patent US20260193335A1 (ZOETIS SERVICES, published 2026).
